From publication PMC9224989, “Structural Analysis of Human Fascin-1: Essential Protein for Actin Filaments Bundling” (Life, 2022)

Target: the molecule itself
Test: native gel or EMSA; 8% native PAGE; equal amounts (2.5 μg) of FLF and CHF mixed and incubated for 1 h at 4 °C; lanes CHF, FLF, FLF + CHF

B1: C-terminal half of human fascin 1 (CHF) (domain or fragment)
chain: not shown
notes: human fascin 1, residues 260-493 (beta3 and beta4-trefoil domains); also called N-terminal domain deletion (beta-trefoil 1 and 2); C-domain; not shown: His tag (from the vector pFastBacHT)
With B1 the “stoichiometry N” value was 2.
